In patent US20240309103A1 (Regeneron, published 2024):

T1: human NPR1 on HEK293/hNPR1.myc.DDK cells (0 hANP) (human, UniProt P16066 33-1061)
T1 sequence: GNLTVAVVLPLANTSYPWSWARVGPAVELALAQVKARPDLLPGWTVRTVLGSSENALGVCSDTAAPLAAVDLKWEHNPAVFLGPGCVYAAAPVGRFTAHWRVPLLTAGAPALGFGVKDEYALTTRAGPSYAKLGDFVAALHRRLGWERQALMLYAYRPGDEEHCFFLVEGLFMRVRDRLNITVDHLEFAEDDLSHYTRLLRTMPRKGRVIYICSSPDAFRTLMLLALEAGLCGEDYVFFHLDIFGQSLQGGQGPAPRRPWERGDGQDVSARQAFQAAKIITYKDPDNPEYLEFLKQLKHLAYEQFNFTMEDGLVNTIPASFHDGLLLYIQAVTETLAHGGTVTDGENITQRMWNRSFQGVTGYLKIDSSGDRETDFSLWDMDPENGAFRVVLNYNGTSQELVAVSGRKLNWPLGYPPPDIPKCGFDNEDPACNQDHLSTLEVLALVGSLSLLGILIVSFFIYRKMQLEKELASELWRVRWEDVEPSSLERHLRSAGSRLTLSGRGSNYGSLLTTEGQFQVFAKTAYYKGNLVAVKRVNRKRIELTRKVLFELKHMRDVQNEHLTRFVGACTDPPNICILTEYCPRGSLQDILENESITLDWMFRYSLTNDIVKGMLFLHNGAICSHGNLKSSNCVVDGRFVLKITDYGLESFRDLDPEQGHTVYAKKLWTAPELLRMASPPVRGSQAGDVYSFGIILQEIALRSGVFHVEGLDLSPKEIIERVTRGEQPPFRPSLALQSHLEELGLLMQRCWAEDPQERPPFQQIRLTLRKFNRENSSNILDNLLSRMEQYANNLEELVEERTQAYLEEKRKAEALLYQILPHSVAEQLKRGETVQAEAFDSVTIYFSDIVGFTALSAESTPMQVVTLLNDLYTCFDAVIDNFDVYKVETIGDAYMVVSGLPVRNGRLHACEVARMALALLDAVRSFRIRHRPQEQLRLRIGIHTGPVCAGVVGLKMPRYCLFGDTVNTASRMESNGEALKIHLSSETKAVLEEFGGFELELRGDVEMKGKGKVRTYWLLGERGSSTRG

T2: mNPR1-mFc (mouse)
T2 construct: also called mouse NPR1 extracellular domain expressed with a C-terminal mouse IgG2a
T2 chain: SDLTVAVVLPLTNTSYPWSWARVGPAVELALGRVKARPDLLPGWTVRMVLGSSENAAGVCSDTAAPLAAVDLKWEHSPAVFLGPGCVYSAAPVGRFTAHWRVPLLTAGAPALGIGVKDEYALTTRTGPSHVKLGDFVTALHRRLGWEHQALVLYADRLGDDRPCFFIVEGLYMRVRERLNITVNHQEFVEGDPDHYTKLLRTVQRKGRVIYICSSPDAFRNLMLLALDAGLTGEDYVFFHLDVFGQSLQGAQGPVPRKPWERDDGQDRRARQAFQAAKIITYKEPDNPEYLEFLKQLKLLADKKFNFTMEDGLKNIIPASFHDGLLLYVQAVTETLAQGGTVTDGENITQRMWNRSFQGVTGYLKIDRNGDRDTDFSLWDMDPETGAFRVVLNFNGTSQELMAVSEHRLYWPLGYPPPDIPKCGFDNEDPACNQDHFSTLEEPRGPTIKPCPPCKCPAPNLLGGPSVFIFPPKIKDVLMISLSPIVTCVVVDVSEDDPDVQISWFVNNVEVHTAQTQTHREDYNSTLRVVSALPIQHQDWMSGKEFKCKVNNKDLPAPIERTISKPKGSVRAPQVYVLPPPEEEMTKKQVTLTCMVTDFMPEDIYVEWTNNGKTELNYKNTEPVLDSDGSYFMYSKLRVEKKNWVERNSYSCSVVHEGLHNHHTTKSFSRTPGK

T3: human NPR1 on HEK293/hNPR1.myc.DDK cells with 10 nM hANP (NPR1-ANP complex) (human, UniProt P01160 124-151)
T3 construct: also called NPR1-ANP Complex on the Cell Surface
T3 sequence: T1 sequence
T3 sequence (peptide): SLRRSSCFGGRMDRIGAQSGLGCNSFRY

B1: mAb22805 (antibody, human IgG4, V domains shown)
VH: QVQLVESGGGVVQPGRSLRLSCAASGFTFSTYGMHWVRQAPGKGLEWVALIWNDGSNKYYADSVKGRFTISRDNSKNTLDLQMNSLRAEDTAVYYCARLNTRITGTTNLDYWGQGTLVTVSS
VL: DIQMTQSPSSLSASVGDRVTVSCRASQSIANYLNWYQQKPGKAPNLLIYGAYTLQSGVPSRFRGSGSGTDFTLTISSLQPEDFATYYCQQTYSTPPITFGQGTRLEIK
B2: mAb22810 (antibody, human IgG4, V domains shown)
VH: EVQLVESGGGLVKPGGSLRLSCVVSGFTFRIYTMNWVRQAPGKGLEWVASISSSSSFINYADSLKGRFTISRDNAQNSLYLQMNSLRAEDTAIYYCARAAGNDVLPGRMDVWGQGTSVTVSS
VL: EIVLTQSPGTLSLSPGERATLSCRASQSVSSNYLAWYQQKPGQVPSLLIYGASSRATGIPDRFSGSGSGTDFTLTITRLEPEDFAVYYCQQYGISPWTFGQGTKVEIK
B3: mAb25545 (antibody, human IgG4, V domains shown)
VH: QVQLVESGGGLVKPGGSLRLSCAASGFTFSDYHLSWIRQAPGKGLEWVSYIRSSGRTIDYAASVKGRFTISRDNAKNSLYLQMNSLRVEDTAVYYCARENWIVLKVYAGIVGAPLDQWGQGTLVTVSS
VL: not shown
B4: mAb22809 (antibody, human IgG4, V domains shown)
VH: QLQLRESGPGLVKPSETLSLTCTVSGGSINDNSFFWDWIRQTPGRGLEWIGNIFFDGNTYYTPSLKSRVIISVDMSQNQFSLRLTSVTAADTALYYCARHKRSMTAWGFFDYWGQGTLVTVSS
VL: DIQMTQSPSSLSASVGDRVTITCRASKRINTYLNWYQQKPGKAPKVLIYSASNLQSGVPSRFSGSGSGTDFTLTINSLQPEDFATYFCQQSFSAPPITFGQGTRLEIK
B5: human NPR1 extracellular domain expressed with a C-terminal myc-myc-hexahistidine (hNPR1-MMH) (receptor)
chain: GNLTVAVVLPLANTSYPWSWARVGPAVELALAQVKARPDLLPGWTVRTVLGSSENALGVCSDTAAPLAAVDLKWEHNPAVFLGPGCVYAAAPVGRFTAHWRVPLLTAGAPALGFGVKDEYALTTRAGPSYAKLGDFVAALHRRLGWERQALMLYAYRPGDEEHCFFLVEGLFMRVRDRLNITVDHLEFAEDDLSHYTRLLRTMPRKGRVIYICSSPDAFRTLMLLALEAGLCGEDYVFFHLDIFGQSLQGGQGPAPRRPWERGDGQDVSARQAFQAAKIITYKDPDNPEYLEFLKQLKHLAYEQFNFTMEDGLVNTIPASFHDGLLLYIQAVTETLAHGGTVTDGENITQRMWNRSFQGVTGYLKIDSSGDRETDFSLWDMDPENGAFRVVLNYNGTSQELVAVSGRKLNWPLGYPPPDIPKCGFDNEDPACNQDHLSTLEEQKLISEEDLGGEQKLISEEDLHHHHHH
notes: also called hNPR.mmh; monomeric human NPR1

target: T1, human NPR1 on HEK293/hNPR1.myc.DDK …; assay: cell-based or functional assay

Row | Binder | % Activation (vs ANP max), Expt 1 | % Activation (vs. ANP max), Expt II | EC50 (nM), calcium flux, Expt 1 | EC50 (nM), calcium flux, Expt II
1 | B1 | 91.6% | 119% | 239 nM | 112 nM
2 | B2 | – | 126% | – | 50.8 nM
3 | B3 | 123% | 123% | 188 nM | 74.1 nM
4 | B4 | 86.7% | – | 270 nM | –

target: T4, mfNPR1-mFc:hBNP complex (monkey; human, UniProt P16860 103-134); assay: SPR Biacore, mAb captured by anti-human Fc, 37C
T4 construct: Receptor-Fc pre-complexed with 10-fold hBNP
How it was run: (§1)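 Equilibrium dissociation constants come from surface plasmon resonance, with the NPR1 reagent flowed over captured antibody. The capture layer was anti-human Fc (monoclonal or goat polyclonal), amine-coupled onto a CM5 chip. Buffer was HEPES-buffered saline with EDTA and 0.05% Tween-20, pH 7.4.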

Row | Binder | 100 nM Ag Bound (RU) | Kd | koff | kon | t½
5 | B1 | 150 RU | 3.39 nM | 0.000202 s⁻¹ | 59600 M⁻¹ s⁻¹ | 57.2 min
6 | B3 | 82 RU | 2.09 nM | 7.77e-05 s⁻¹ | 37100 M⁻¹ s⁻¹ | 149 min
7 | B4 | 99 RU | 4.29 nM | 0.000229 s⁻¹ | 53400 M⁻¹ s⁻¹ | 50.5 min

Target: T2, mNPR1-mFc
Assay: SPR Biacore, mAb captured by anti-human Fc, 37C
How it was run: as §1

Row | Binder | 100 nM Ag Bound (RU) | binding result
8 | B1 | 0 RU | no binding (tested: 100 nM)
9 | B3 | 1 RU | no binding (tested: 100 nM)
10 | B4 | 0 RU | no binding (tested: 100 nM)

Target: T2, mNPR1-mFc
Assay: SPR Biacore, mAb captured by anti-human Fc, 25C
How it was run: as §1

Row | Binder | 100 nM Ag Bound (RU)
11 | B1 | 0 RU
12 | B3 | 0 RU
13 | B4 | 0 RU

Target: the molecule itself
Assay: SEC-MALS
Description: After overnight incubation in PBS at 4° C., the complexes were injected into the SEC-MALS system, which consists of a Superdex 200 Increase 10/300 GI column on an ÄKTA micro system (GE Healthcare Life Sciences), followed by a miniDAWN Treos and Optilab T-rEX (Wyatt Technology Corporation). […] Size exclusion chromatography data was evaluated using Unicorn (Version 5.20 General Electric Company), and the MALS data was evaluated using ASTRA (Version 7.0.0.69 Wyatt Technology).

Row | Binder | binding result
14 | B5 | binds

target: T1, human NPR1 on HEK293/hNPR1.myc.DDK …; assay: ECL cell binding (MSD), HEK293/hNPR1.myc.DDK cells, 0 hANP
Description: Experiments were carried out according to the following procedure. Cells from lines described above were rinsed once in 1×PBS buffer without Ca²⁺/Mg²⁺ nd incubated for 10 minutes at 37° C. with Enzyme Free Cell Dissociation Solution to detach cells from a flask. All cells were washed once with 1×PBS with Ca²⁺/Mg²⁺ and counted with a Cellometer™ Auto T4 cell counter (Nexcelom Bioscience). Approximately 2.0×10⁴ HEK293/hNPR1.myc.DDK or HEK293 cells were seeded separately onto 96-well carbon electrode plates (MULTI-ARRAY high bind plate, Meso Scale Discovery (MSD, Rockville, MD)) and incubated for 1 hour (h) at 37° C. Nonspecific binding sites were blocked by 2% BSA (w/v) in 1×PBS with Ca²⁺/Mg²⁺for 1 h at room temperature (RT). HEK293/hNPR1.myc. […] The plate-bound antibodies were detected with SULFO-TAG™-conjugated goat polyclonal anti-human IgG antibody specific for heavy and light chains (Jackson Immunoresearch, West Grove, PA) for 1 h, RT.
After washes, plates were developed with Read Buffer (MSD, Rockville, MD) according to manufacturer's recommended procedure and luminescent signals were recorded with a SECTOR Imager 600 (MSD, Rockville, MD). Luminescence intensity, measured in relative light units (RLU), was recorded to indicate the binding intensity of each antibody at the range of concentrations.

Row | Binder | binding result
15 | B1 | no binding (tested: ratio below 3 at 3.7 nM Ab)
16 | B2 | no binding (tested: ratio below 3 at 3.7 nM Ab)
17 | B3 | no binding (tested: ratio below 3 at 3.7 nM Ab)
18 | B4 | no binding (tested: ratio below 3 at 3.7 nM Ab)

target: T1, human NPR1 on HEK293/hNPR1.myc.DDK …; assay: ECL cell binding (MSD), 0 hANP

Row | Binder | Ratio at 3.7 nM Ab concentration of Cell Binding Signal (RLU) to HEK293/hNPR1.myc.DKK relative to parental HEK293
19 | B1 | 1 ratio
20 | B2 | 1 ratio
21 | B3 | 1 ratio
22 | B4 | 2 ratio

target: T3, human NPR1 on HEK293/hNPR1.myc.DDK …; assay: ECL cell binding (MSD), +10 nM hANP

Row | Binder | EC50 | Ratio at 3.7 nM Ab concentration of Cell Binding Signal (RLU) to HEK293/hNPR1.myc.DKK relative to parental HEK293
23 | B1 | 0.65 nM | 222 ratio
24 | B2 | 3.7 nM | 24 ratio
25 | B3 | 1.9 nM | 79 ratio
26 | B4 | 0.48 nM | 166 ratio
